# Laboratory results published in patent US20100120678A1 (University of California, published 2010).
# Target: His-tagged wildtype EGFR kinase domain (human, UniProt P00533 696-1022, limits assumed)
# Test: cell-based or functional assay
binder,measurement,value
SYLNGVMPPTQSFAPDPKYVSSKAL [25-mer peptide corresponding to residues 340-364 in Mig-6],inhibition of activated EGFR kinase (IC50),~100 µM
